Assay results from patent US20220195047A1 (TCRCURE BIOPHARMA, published 2022).
Changes are numbered by the printed parent chain.

B1: F02 anti-PD-1 antibody (antibody, V domains shown)
VH: QQPGAELVKPGASVKLSCRASGYTFTNYYLYWVKQRPGQGLEWIGGINPSNGGTNFNEKFRGKATLTVDKSSSTAYMQLSSLTSEDSAVYFCTRRDYNYDGGFDYWGQGSTLTVSS
VL: DIVLTQSPASLAVSLGQRATISCRASKSVSTSGFNYMHWYQQKPGQPPKLLIYLASNLDSGVPARFSGSGSGTDFTLNIHPVEEEDAATYYCQHGRELPLTFGAGTKLELRR
notes: Mouse monoclonal antibody from hybridoma clone #11, detected with anti-mouse IgG F(ab')2; Only the variable domains are tied to F02; also called anti-PD-1 antibody from hybridoma clone #11; clone #11
B2: h11 anti-PD-1 antibody (antibody, V domains shown)
VH: QVQLVQSGAEVKKPGASVKVSCKASGYTFTNYYMYWVRQAPGQGLEWIGGINPSNGGTNFNEKFKNKATMTVDKSTSTAYMELSSLRSEDTAVYYCTRRDYNYDGGFDYWGQGTLVTVSS
VL: DIVLTQSPATLSLSPGERATLSCRASKSVSTSGFNYMHWYQQKPGQAPRLLIFLASNLASGVPARFSGSGSGTDFTLTISSLEPEDFAVYYCQHGRELPLTFGQGTKLEI
notes: Humanized antibody derived from F02, detected with anti-human IgG Fc; also called hl 1
B3: Ab5 anti-PD-1 antibody (antibody, V domains shown)
VH: QVQLQQSGAEVKKPGSSVKVSCKASGYTFTNYYLYWVRQAPGQGLEWIGGINPSNGGTNFNEKFRGRVTITADESSTTAYMELSSLRSEDTAFYFCTRRDYNYDGGFDYWGQGTTVTVSS
VL: DIVMTQSPSSLSASVGDRVTITCRASKSVSTSGFNYMHWYQQTPGKAPKLLIYLASNLDSGVPARFSGSGSGTDFTFTISSLQEEDIATYYCFHGRELPLTFGQGTKLQITR
notes: Humanized antibody, detected with anti-human IgG Fc
B4: Ab2 anti-PD-1 antibody (antibody, V domains shown)
VH: B3 VH
VL: B3 VL with V3Q, A64S, E84P
notes: as for B3
B5: Ab4 anti-PD-1 antibody (antibody, V domains shown)
VH: B3 VH
VL: B3 VL with V3Q
notes: as for B3
B6: Ab7 anti-PD-1 antibody (antibody, V domains shown)
VH: B3 VH with K23R
VL: B3 VL
notes: as for B3
B7: Ab8 anti-PD-1 antibody (antibody, V domains shown)
VH: B3 VH with Q1E, Q6E, I48M, S76T, T77S, F93V, F95Y, T97A
VL: DIVMTQSPDSLAVSLGERATINCRASKSVSTSGFNYMHWYQQKPGQPPKLLIYLASNLDSGVPDRFSGSGSGTDFTLTIRPLQAEDVAVYYCQHGRELPLTFGQGTKLEIK
notes: as for B3

Biological target: T1, human PD-1 protein (hPD-1) on cell surface of 293T-PD-1 cells (human, UniProt Q15116 25-287)
T1 construct: Human PD-1 expressed in HEK293T cells, either by lentiviral transduction or by the pCMV6-ENTRY PDCD1 cDNA RC210364; also called PDCD1 (RC210364) in HEK293T cells
T1 sequence (Q15116 25-287 limits assumed): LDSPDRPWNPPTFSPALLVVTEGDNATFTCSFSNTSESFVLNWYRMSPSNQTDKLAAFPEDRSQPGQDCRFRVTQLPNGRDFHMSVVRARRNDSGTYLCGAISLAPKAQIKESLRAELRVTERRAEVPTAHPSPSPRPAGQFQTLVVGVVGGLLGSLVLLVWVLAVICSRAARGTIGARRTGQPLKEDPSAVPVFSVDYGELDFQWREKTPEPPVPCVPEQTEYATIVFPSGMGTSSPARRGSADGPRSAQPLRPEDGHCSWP
Test: flow cytometry on 293T-PD-1 cells, 4 C for 60 min, secondary FITC-anti-Mouse IgG F(ab')2; y axis hPD-1%
Protocol: (§1) The cells were then stained with a secondary antibody (APC-anti-Hu IgG Fc for humanized antibodies and FITC-anti-Mouse IgG F(ab′)2 for F02) for 30 minutes (1:50), followed by flow cytometric analysis. The results were analyzed through Prism 7 and Kd values were determined by the program.

Row | Binder | EC50 (read off the curve) [µg/mL]
1 | B1 | ~0.01

Biological target: T1, human PD-1 protein (hPD-1) on cell …
Test: flow cytometry on 293T-PD-1 cells
Protocol: as §1

Row | Binder | Kd [nM]
2 | B1 | 0.07
3 | B2 | 0.55
4 | B3 | 3.69
5 | B4 | 3.24
6 | B5 | 41
7 | B6 | 2.3
8 | B7 | 0.65

Biological target: T2, recombinant biotinylated human PD-1 (human, UniProt Q15116 25-170, limits assumed, biotinylated (site not stated))
T2 construct: also called rhPD-1; recombinant human PD-1 protein
T2 sequence (Q15116 25-170 limits assumed): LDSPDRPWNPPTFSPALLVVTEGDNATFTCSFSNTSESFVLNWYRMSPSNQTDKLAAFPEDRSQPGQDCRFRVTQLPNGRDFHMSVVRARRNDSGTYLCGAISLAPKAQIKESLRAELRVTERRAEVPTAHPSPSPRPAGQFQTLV
Test: ELISA, antibody coated, biotinylated rhPD-1 titrated, Sav-HRP detection
Protocol: 5 μg/ml of anti-PD1 antibody in 100 μl coating buffer was coated in the microwells at 4° C. overnight. By following the ELISA procedure, a 5-fold serial dilution of recombinant biotinylated human PD-1 was added to the assay plate pre-coated with anti-PD1 antibodies. The bound human PD-1 protein was then detected with Sav-HRP reagent. The results were analyzed through Prism 7 and Kd values were determined by the program.

Row | Binder | Kd [nM]
9 | B1 | 0.14
10 | B2 | 0.29
11 | B6 | 0.68
12 | B7 | 0.32

Biological target: T1, human PD-1 protein (hPD-1) on cell …
Test: flow cytometry on 293T-PD-1 cells, 4 C for 60 min, secondary APC-anti-Hu IgG Fc; y axis hPD-1%
Protocol: as §1

Row | Binder | EC50 (read off the curve) [µg/mL]
13 | B2 | ~0.07
14 | B3 | ~0.5
15 | B4 | ~0.4
16 | B5 | ~3
17 | B6 | ~0.3
18 | B7 | ~0.1
